Measured values from article PMC6698656, “Structural insights into dimethylation of 12S rRNA by TFB1M: indispensable role in translation of mitochondrial genes and mitochondrial function”.

Columns and labels:
Details in all cases: protein: recombinant; tags: His6-MBP N-terminal, removed by TEV; label: 5'-FAM; hairpin
hsTFB1M Q177A = hsTFB1M Q177A (Homo sapiens, UniProt Q8WVM0 28-346, Q177A); test: EMSA; affinity improved to some degree; EMSA: 50 mM Tris-HCl pH 8.0, 25 mM NaCl, 100 nM RNA, TFB1M 0-2 mM as printed (legend suggests uM), 37 C 30 min; 6% native PAGE, 0.5x TBE
hsTFB1M E179A = hsTFB1M E179A (Homo sapiens, UniProt Q8WVM0 28-346, E179A); test: as above
hsTFB1M I152A = hsTFB1M I152A (Homo sapiens, UniProt Q8WVM0 28-346, I152A); test: EMSA; affinity not impaired; EMSA: 50 mM Tris-HCl pH 8.0, 25 mM NaCl, 100 nM RNA, TFB1M 0-2 mM as printed (legend suggests uM), 37 C 30 min; 6% native PAGE, 0.5x TBE
hsTFB1M R195A = hsTFB1M R195A (Homo sapiens, UniProt Q8WVM0 28-346, R195A); test: as above
hsTFB1M E246A = hsTFB1M E246A (Homo sapiens, UniProt Q8WVM0 28-346, E246A); test: as above
hsTFB1M N36A = hsTFB1M N36A (Homo sapiens, UniProt Q8WVM0 28-346, N36A); test: EMSA; affinity not significantly changed vs WT; EMSA: 50 mM Tris-HCl pH 8.0, 25 mM NaCl, 100 nM RNA, TFB1M 0-2 mM as printed (legend suggests uM), 37 C 30 min; 6% native PAGE, 0.5x TBE
hsTFB1M Q35A = hsTFB1M Q35A (Homo sapiens, UniProt Q8WVM0 28-346, Q35A); test: as above
hsTFB1M F144A = hsTFB1M F144A (Homo sapiens, UniProt Q8WVM0 28-346, F144A); test: as above
hsTFB1M V225A = hsTFB1M V225A (Homo sapiens, UniProt Q8WVM0 28-346, V225A); test: as above

Measured: binding result

Sequence of hsTFB1M R195A (Q8WVM0 28-346 R195A): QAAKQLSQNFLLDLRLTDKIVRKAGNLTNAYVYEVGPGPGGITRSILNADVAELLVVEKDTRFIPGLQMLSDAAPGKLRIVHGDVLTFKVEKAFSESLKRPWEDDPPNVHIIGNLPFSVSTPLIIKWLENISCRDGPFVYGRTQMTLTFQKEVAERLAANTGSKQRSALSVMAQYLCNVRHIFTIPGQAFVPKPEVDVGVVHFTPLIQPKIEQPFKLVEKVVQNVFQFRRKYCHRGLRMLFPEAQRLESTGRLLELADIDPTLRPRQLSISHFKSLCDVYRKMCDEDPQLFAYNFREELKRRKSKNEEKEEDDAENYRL
Sequence of hsTFB1M Q177A (Q8WVM0 28-346 Q177A): as the sequence (Q8WVM0 28-346 R195A) above, with Q150A, A168R counted along it
Sequence of hsTFB1M V225A (Q8WVM0 28-346 V225A): as the sequence (Q8WVM0 28-346 R195A) above, with A168R, V198A counted along it
Sequence of hsTFB1M Q35A (Q8WVM0 28-346 Q35A): as the sequence (Q8WVM0 28-346 R195A) above, with Q8A, A168R counted along it
Sequence of hsTFB1M E246A (Q8WVM0 28-346 E246A): as the sequence (Q8WVM0 28-346 R195A) above, with A168R, E219A counted along it
Sequence of hsTFB1M F144A (Q8WVM0 28-346 F144A): as the sequence (Q8WVM0 28-346 R195A) above, with F117A, A168R counted along it
Sequence of hsTFB1M E179A (Q8WVM0 28-346 E179A): as the sequence (Q8WVM0 28-346 R195A) above, with E152A, A168R counted along it
Sequence of hsTFB1M I152A (Q8WVM0 28-346 I152A): as the sequence (Q8WVM0 28-346 R195A) above, with I125A, A168R counted along it
Sequence of hsTFB1M N36A (Q8WVM0 28-346 N36A): as the sequence (Q8WVM0 28-346 R195A) above, with N9A, A168R counted along it

B1: 5'-FAM h45 RNA (WT) (structured_RNA)
RNA: GGUAAGUGUACUGGAAAGUGCACUUGCC
binds: all assays above
